Columns and labels:
[1] = target: FANCI (I);FANCD2 (D2) (Homo sapiens;Homo sapiens, UniProt Q9NVI1;Q9BXW9 1-1328;1-1451, |); assay: PIFE; 150 mM NaCl; Kd only in bar graph; EMSA: 16 mM Tris-HCl pH 8, 150 mM NaCl, 4.4% glycerol, 0.07 mg/ml BSA, 7 mM DTT, 4 mM EDTA, 2 nM DNA, on ice 20 min, 4% PAGE in 0.5x TBE (4 C). PIFE: 150 mM NaCl, 125 nM DNA, 22 C.; conditions: protein: recombinant;recombinant; tags: His6-TEV-V5 (N-term); His6-3C, cleaved in some cases; copies: 1;1; label: 5' IRDye700 on both strands; blunt
Sequence of FANCI (I);FANCD2 (D2) (Q9NVI1 whole entry, chain 1 of 2): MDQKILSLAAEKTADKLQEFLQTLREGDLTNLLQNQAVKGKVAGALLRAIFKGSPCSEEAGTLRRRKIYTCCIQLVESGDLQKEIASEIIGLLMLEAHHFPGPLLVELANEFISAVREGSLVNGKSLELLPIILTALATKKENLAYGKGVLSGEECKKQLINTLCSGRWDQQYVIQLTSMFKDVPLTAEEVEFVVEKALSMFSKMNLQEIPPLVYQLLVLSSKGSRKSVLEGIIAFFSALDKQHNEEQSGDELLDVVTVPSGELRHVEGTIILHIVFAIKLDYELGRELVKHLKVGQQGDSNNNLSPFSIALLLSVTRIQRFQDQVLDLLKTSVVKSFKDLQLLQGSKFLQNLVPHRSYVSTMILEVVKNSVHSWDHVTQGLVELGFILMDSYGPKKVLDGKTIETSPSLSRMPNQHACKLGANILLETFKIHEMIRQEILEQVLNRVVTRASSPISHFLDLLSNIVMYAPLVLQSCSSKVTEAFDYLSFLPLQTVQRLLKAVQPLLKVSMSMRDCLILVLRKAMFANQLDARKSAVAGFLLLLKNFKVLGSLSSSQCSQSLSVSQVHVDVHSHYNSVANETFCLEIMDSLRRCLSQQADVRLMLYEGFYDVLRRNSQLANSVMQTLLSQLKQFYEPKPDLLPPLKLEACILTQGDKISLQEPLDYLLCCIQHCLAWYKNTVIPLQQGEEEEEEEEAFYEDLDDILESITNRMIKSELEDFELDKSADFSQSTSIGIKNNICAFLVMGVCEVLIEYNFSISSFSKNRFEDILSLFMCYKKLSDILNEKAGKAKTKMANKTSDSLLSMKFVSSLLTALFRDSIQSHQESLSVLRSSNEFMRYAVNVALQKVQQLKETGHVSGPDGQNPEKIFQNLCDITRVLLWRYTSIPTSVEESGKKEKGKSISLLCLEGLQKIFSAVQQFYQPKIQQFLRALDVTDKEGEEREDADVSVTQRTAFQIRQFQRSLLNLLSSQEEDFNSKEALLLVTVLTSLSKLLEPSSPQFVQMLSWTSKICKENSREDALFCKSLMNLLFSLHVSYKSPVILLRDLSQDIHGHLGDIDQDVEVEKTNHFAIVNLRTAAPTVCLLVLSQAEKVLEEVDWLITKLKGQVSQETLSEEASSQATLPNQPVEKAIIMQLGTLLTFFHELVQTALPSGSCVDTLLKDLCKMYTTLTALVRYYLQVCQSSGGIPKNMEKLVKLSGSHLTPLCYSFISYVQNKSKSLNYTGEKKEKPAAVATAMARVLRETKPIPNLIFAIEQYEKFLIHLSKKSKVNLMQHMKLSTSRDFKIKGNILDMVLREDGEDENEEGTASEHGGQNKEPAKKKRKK
Sequence of FANCI (I);FANCD2 (D2) (Q9BXW9 whole entry, chain 2 of 2): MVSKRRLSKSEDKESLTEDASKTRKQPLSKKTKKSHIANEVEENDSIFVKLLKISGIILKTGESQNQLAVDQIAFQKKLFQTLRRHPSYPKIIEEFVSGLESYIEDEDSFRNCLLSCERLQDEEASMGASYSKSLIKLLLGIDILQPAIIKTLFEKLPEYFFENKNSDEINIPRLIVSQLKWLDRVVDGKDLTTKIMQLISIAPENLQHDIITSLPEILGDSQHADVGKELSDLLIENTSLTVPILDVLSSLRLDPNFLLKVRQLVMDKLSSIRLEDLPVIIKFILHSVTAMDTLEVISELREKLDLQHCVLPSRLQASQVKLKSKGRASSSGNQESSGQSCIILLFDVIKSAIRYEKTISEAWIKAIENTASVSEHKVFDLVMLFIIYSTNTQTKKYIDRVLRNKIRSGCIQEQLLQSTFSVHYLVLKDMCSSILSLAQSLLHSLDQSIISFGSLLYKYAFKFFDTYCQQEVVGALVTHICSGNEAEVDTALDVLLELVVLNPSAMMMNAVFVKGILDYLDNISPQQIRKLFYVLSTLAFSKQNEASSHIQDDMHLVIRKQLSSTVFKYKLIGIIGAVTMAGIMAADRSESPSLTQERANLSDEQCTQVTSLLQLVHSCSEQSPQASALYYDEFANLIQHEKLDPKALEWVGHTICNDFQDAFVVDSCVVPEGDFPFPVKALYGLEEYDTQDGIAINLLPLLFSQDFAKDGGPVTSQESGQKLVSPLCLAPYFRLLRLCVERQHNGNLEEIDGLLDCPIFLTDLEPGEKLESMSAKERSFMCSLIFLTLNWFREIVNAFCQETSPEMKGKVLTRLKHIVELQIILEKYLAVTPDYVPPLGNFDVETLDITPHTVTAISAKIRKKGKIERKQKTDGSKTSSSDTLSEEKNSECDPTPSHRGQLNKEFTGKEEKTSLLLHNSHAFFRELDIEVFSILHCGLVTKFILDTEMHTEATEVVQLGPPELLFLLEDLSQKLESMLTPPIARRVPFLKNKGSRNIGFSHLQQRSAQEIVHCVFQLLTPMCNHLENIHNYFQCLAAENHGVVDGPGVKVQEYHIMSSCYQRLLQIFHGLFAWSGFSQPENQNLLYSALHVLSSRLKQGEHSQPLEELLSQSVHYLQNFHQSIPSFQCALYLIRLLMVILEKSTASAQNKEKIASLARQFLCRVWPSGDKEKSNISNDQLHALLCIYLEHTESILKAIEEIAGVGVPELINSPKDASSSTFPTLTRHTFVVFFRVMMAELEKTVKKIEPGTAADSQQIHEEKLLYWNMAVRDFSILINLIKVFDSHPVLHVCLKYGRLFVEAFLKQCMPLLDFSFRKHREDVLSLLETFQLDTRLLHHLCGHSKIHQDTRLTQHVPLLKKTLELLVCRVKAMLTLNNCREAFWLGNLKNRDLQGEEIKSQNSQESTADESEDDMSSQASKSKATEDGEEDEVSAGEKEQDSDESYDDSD

[2] = target: FANCI R1285Q;FANCD2 (D2) (Homo sapiens;Homo sapiens, UniProt Q9NVI1;Q9BXW9 1-1328;1-1451, R1285Q|); assay: PIFE; minor, insignificant reduction vs WT I+D2; Kd only in bar graph; EMSA: 16 mM Tris-HCl pH 8, 150 mM NaCl, 4.4% glycerol, 0.07 mg/ml BSA, 7 mM DTT, 4 mM EDTA, 2 nM DNA, on ice 20 min, 4% PAGE in 0.5x TBE (4 C). PIFE: 150 mM NaCl, 125 nM DNA, 22 C.; conditions: protein: recombinant;recombinant; tags: His6 (N-term);FLAG (EMSA); His6-3C, cleaved in some cases; copies: 1;1; label: 5' IRDye700 on both strands; blunt
Sequence of FANCI R1285Q;FANCD2 (D2) (Q9NVI1 whole entry R1285Q, chain 1 of 2): as the sequence (Q9NVI1 whole entry, chain 1 of 2) above, with R1285Q counted along it
Sequence of FANCI R1285Q;FANCD2 (D2) (Q9BXW9 whole entry, chain 2 of 2): as the sequence (Q9BXW9 whole entry, chain 2 of 2) above

B1: ds32F (dsDNA)
DNA 1: CGATCGGTAACGTATGCTGAATCTGGTGCTGG
DNA 2: CCAGCACCAGATTCAGCATACGTTACCGATCG
- binding result [1]: binds
- binding result [2]: binds
